Assay: soluble on expression in E. coli; label from the status in PepcDB or PDB records

Sequence | soluble on expression in E. coli
MGKDLRGKELGVGLYQRKDKRYSARYTNQYGKRMEFYDFKLSVVKKWLNDARYEDEHGLSGTGEKVTVTEWFEKWIKLYKEGVVKDNTVKNYKSRFENNIKPAIGNLQLNKVKKIQLQTILNNMYEEGYAFGTMVLAQITIHALFDGAVQSEILAKNPANGLKCKQRDVKDSRVLTREEQKVFLEYSRGTMYYNAYALLLQTGLRPGEVGGLKWEDIDFDKRELHITRTLLQDKAKGGFYFGSPKNKKSIRTVPLTDTAIQLLKDQRICNFKLRQRSDNWQKNKEFDNLIFCTINGNPVGQSTFRMMMLRVITRINNDRRAEAEINNTTYVEFEPAHPHTLRHTFATRCIEDGMKPNVLQKILGHASITVTMDLYVHETHEEKHKEIRKLGNVEEIGVKLA | not soluble
MEKEQLIEIANTIMPFGKYKGRRLIDLPEEYLLWFARKDEFPAGKLGELMQITLLIKNEGLTQLVQPLKRPL | soluble
MSEAAHSGAAPADLVELGRIASAYGVKGWVKVQPHSAQAEVLRTVSHWWLTRPAPQAARGVVASVPRAYQVLQARVHGGAVVAQLAGIDDRDQAEALRGCLVQAARSAFPAPADDEYYWVDLIGCALYSDADGESRLLGVVDEVFDNGAHAVLKVLRQQLQPGQPGPVPLVDPKGRPLEELVPFVRAHIRHVDLAARRIDSDWPLDYLEHHHHHH | soluble
MGSDKIHHHHHHMFLEPFFTQTDETVTISPFQASEFAKRVAEDFNPIHDESAKRFCVPGDLLFALVLSHYGLSQKMQFKFEGMVGEGVCLNFPVEVGDSFPICDSRDKTYLSVSRQGDVSRCETQIESFVRSYVSFSGLNFIHVLVPMMREHGVMINPDRPLVIYESMAFDLTTLDFDQVALELSDARLSVDGKRGDVTLEFALISDGKQVGTGVKTLVMSGLRALDEAALDGMAQFYEERRATL | not soluble
MSSKNEQTPKVPAELDPLNETIFREQMYAIYQVCQYPSKEQYAEWAQTYQIQQRRIRKWFDNRRTRDRERRKRKGDDNEDSSEISKRGRVTCGLDYKNHEEESTDDFQDDIEELDNSQFEMAKVSSIRDELKDVKSESPPVMEQSFHLRTVQHVSTPRRDRIIPESQTLFVPAGCSLDYEKWTPAEFLQWTSNFLSSAQAMDIIKSQEISGDTMESFFDDPDFRKETGMPYGPFQTIKKHAATVINRFNGYE | not soluble
SNAKNRLGTKALNFTYTLDSGVKGTLYQFPAEYTLLFINNPGCHACAEMIEGLKASPVINGFTAAKKLKVLSIYPDEELDEWKKHRNDFAKEWTNGYDKELVIKNKNLYDLRAIPTLYLLDKNKTVLLKDATLQKVEQYLAE | soluble
MSLTRLLIRDFRNIETADLALSPGFNFLVGANGSGKTSVLEAIYTLGHGRAFRSLQIGRVIRHEQEAFVLHGRLQGEERETAIGLTKDKQGDSKVRIDGTDGHKVAELAHLMPMQLITPEGFTLLNGGPKYRRAFLDWGCFHNEPGFFTAWSNLKRLLKQRNAALRQVTRYEQLRPWDKELIPLAEQISTWRAEYSAGIAADMADTCKQFLPEFSLTFSFQRGWEKETEYAEVLERNFERDRQLTYTAHGPHKADLRIRADGAPVEDTLSRGQLKLLMCALRLAQGEFLTRESGRRCLYLIDDFASELDDERRGLLASRLKATQSQVFVSAISAEHVIDMSDENSKMFTVEKGKITD | soluble
MSEVLTRGFRFRPADEEVTDYLMRKTQSPEFSCFIKTIDLYDKDPWVLGHVRDPCYNHYEWYYFVKKNPLGNEYLDKPRLNGFEHPRLKWDVLKQIHDALSSGQNVPPSVFTYGFRFHPTDQELLSLYLTPKAHSPDFSCFIRERESYMPWSHGFLNMLDLLFTRTVNGTTL | soluble
MTLSKQLKTYITERFKLNYQDTWSCETVDAVAEDVLPEKYIKNSPLEHKILNTFTYYNDELHEISIYPFLCYLDKELIAIGYLDNFDLDFIFLNDTHQIIIDERYLLQKGGELEHHHHHH | not soluble
MDDWKCYDFEKIKRFEKCENPATSCVKKFVHPTLPNDIPISINLQWSPWSECNDRTQTRTGQCFIRLERQLDDSDGLPENWSWLRKLNTMEKHLAFRDGVPLFNGLLASWLYEVESLESCLDTELGPKSKLSGYDNFFGNVLTSLFSNKTISGIKMSDNAFKYCIRTKTLDETNDALIGTYTEDKRTC | not soluble
MAHHHHHHMRHMCVTLKRRACTVSFSPFLMSYFQSMLMPYRDSVRSSKSDKASSRTVNEEAKVSLSAFSFLFSEMCTRAHNTPSKASNVEEIEQRLTSLGVLVGARLIMLSSLKDPLELQRRPITIEGALKLFQDKLWSRWFGKPANDLQRETGSDRFFIFDTEPIVLRYVYPSPEYLDGEGRWSINYASFMGGIVEGALKAIGFAAEVLTYHQPEPSKPHQSIFAISFAKHVWDRERRLRG | not soluble
MSITPHRLPVAPVIVREAYLSLLRKGWRPGDRDLKTPRNVKIETGIIEKAEGSALVKLGKTQVIAGVKAGVGAPFKDTPNQGVLTVHAEFVPLASPVFEPGPPDENAIELARVVDRSLREVGAVDLESLVIRPGEKVWVLWVDLYIIDHDGNLFDASMLATMAVLLTARLPRYEESETGEIIISKEGEGEELKVKTRVVTVTTAKIDRYIVVDPNIEEEAVSDVRLVTAVDENGRIVGLQKTGMGSLTEADIETMIGYSLEASKVYFKALEEAIKP | soluble
MAAVDVNQPITGHKSAIIRNYNTNPRLIYQTVCGVNGPLVILNDVKFPQFSEIVKITLPDGSKRSGQVLEISKNKAVVQVFEGTSGIDAKNTICEFTGDILRTPVSEDMLGRIFNGSGKPIDKGPPVLAEDFLDINGQPINPWSRIYPEEMIQTGISAIDVMNSIARGQKIPIFSASGLPHNEIAAQIVRQGGLVQLPDRPHEQTNFAIVFAAMGVNMETARFFKQDFEENGSMENVCLFLNLANDPTIERIITPRIALTSAEFLAYQCKKHVLVVLTDMSSYAEALREVSAAREEVPGRRGFPGYMYTDLATIYERAGRVEGRDGSITQIPILTMPNDDITHPIPDLTGYITEGQIYVDRQLHNRLIYPPINVLPSLSRLMKSAIGEGMTREDHSDVSNQLYACYAIGKDVQAMKAVVGEEALSSDDLLYLEFLTKFEKNFITQGHYENRSVFESLDIGWQLLRIFPREMLKRIPESTLEKYYPRGGAKE | not soluble
MGSDKIHHHHHHSCENEFDVSDKADSLISVTVNTLNNQAAYNVGETAQAELWIQRGGLKDASGKVQFVVDPLLLDSLNQEDKTNYELLPENCYEMTNTEFTVDKNELCGYITYHPEKILALSAYNETKYVLPLRLISNDLAINPARNTSFLAFTILEPIVHISNAGVYNINPDLTSTMDIQIGVPFTNKWDILCNLTEDLSLIDEYNQINKVNFTLLPENAYTAPESVTLQEGVSQITASYQLKNNLVPGNYILPIKIGSITASQGGVPNNSLVIDEESNVLFCIVKEGNKINKSGWEVIECSSEHAGNEATYMIDDNESTYWHCKFKNEAGSSVPPFHFIIDMKKEITIAQIDLLNRGDGAANNIKWVEFYASNNNSEWDKIGAGDFNDEGTRATFRYYVKSTKARYLKLIIPEGYGNNCPPAAIRELTVYGLEGNN | not soluble
MGSDKIHHHHHHMAYQLRSAALTNYVEVARAVGLDPYQQLRAARISRSVLLDPDIRIPAQAVSRLLESSANAAGIQDFGLRMAETRQLSNLGPLAFAMRQEPTLRRALESMARYLRLQNEAIAMRIEEAEGLVMLRQEALTGVAGSLRQSTDLVVGVLYRVLALVLGPKWRPRSICFSHAAPGSTAMYLRLFGMPVLFNQEFDGIICVASDLEVPLPSYDPTMARQVQQYLDTMLAQSDATISDKVRRLVLALLPSGACTIERVAQHMGVDVRTVQRRLANYDETFSAIVTATRVDLATRYLENRERPLSEVATLLGFGSLSAFSRWFGGHFGCSVSKWRAKGFAKAVKKEGAGRSH | not soluble

Source: the DeepSol protein solubility set
